Data: patent US20220090060A1 (Regeneron, published 2022)

Biological target: T1, hCD22.mmh (human, UniProt P20273 20-687)
T1 construct: Analyte of the Biacore assay; also called Recombinant CD22; human CD22
T1 sequence (looked up): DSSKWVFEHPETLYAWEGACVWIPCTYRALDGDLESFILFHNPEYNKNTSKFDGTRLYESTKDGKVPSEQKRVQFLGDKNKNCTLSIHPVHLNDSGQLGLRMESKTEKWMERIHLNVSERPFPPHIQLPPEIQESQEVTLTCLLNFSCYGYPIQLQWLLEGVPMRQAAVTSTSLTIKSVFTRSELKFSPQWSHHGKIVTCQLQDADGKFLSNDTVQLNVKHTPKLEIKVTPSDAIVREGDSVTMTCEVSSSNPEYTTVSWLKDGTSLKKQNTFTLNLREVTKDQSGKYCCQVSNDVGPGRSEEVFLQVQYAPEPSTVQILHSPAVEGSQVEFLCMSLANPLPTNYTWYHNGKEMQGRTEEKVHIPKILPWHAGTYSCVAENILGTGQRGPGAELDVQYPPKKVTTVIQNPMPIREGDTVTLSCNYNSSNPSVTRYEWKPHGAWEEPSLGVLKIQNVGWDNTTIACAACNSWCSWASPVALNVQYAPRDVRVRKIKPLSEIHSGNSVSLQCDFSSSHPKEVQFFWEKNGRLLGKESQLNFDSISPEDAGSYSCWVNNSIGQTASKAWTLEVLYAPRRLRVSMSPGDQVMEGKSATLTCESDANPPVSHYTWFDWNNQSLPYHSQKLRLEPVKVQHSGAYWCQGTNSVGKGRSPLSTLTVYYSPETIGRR
Assay: SPR (Biacore), mAb captured from CHO supernatant on anti-human Fc, 25C pH 7.4

- Kd: 160 nM
- koff: 0.0117 s⁻¹
- kon: 73200 M⁻¹ s⁻¹
- t½: 1 min
B1: mAb23 (antibody, V domains shown)
VH: EVQLLESGGGLVQPGGSLRLSCAASGFTFSSYAMTWVRQAPGKGLEWVSTISGSGVSTYSADSVKGRFTISRDNSKNTLYLQMNSLRAEDTAVYYCALHWELLDAFDIWGQGTMVTVSS
VL: EIVLTQSPGTLSLSPGERATLSCRASQSISYNYLAWYQQKPGQAPRLLIYGASSRASGISDRFSGSGSGTDFTLTISRLEPEDFVVYYCQQYGSSPLTFGGGTKVEVK
